From PMC8914840

Biological target: human alpha thrombin (human, UniProt P00734;P00734 328-363;364-622)
Assay: electrochemical aptamer sensor (square-wave voltammetry); 1-500 nM thrombin; 100 Hz optimal; concentration-dependent peak current decrease; LOD 14.7 nM (not a Kd); Electrodes soaked in PBS before measurement (137 mM NaCl, 2.7 mM KCl, 10 mM Na2HPO4, 1.8 mM KH2PO4, pH 7.4); thrombin assay buffer and temperature not given in

TAAGTTCATCTCCCCGGTTGGTGTGGTTGGT (structured_DNA, 5' SH-(CH2)6; 3' amine conjugated to arPES) [PES-modified TBA (arPES-TBA)]
binding result: binds
